Measured values: patent publication US20190233493A1 (Sanofi, published 2019)
*1 amine or outer side, *2 acyl side, *3 side chain or, on linkers, in order; H or OH if unused. Side-chain parts run from the residue outwards. [ ]: non-standard residue; d: D form. The star is where a group is joined. PEG12 = NCCOCCOCCOCCOCCOCCOCCOCCOCCOCCOCCOCCOCCC(=O)O; γGlu = O=C(O)[C@H](CCC(=O)[*:2])N[*:1]; Stearoyl = CCCCCCCCCCCCCCCCCC(=O)*; Palmitoyl = CCCCCCCCCCCCCCCC(=O)*; Nle = CCCC[C@H](N)C(=O)O; Aib = CC(C)(N)C(=O)O

T1: RXFP1 receptor (UniProt Q9HBX9 1-757, limits assumed)
T1 sequence (looked up): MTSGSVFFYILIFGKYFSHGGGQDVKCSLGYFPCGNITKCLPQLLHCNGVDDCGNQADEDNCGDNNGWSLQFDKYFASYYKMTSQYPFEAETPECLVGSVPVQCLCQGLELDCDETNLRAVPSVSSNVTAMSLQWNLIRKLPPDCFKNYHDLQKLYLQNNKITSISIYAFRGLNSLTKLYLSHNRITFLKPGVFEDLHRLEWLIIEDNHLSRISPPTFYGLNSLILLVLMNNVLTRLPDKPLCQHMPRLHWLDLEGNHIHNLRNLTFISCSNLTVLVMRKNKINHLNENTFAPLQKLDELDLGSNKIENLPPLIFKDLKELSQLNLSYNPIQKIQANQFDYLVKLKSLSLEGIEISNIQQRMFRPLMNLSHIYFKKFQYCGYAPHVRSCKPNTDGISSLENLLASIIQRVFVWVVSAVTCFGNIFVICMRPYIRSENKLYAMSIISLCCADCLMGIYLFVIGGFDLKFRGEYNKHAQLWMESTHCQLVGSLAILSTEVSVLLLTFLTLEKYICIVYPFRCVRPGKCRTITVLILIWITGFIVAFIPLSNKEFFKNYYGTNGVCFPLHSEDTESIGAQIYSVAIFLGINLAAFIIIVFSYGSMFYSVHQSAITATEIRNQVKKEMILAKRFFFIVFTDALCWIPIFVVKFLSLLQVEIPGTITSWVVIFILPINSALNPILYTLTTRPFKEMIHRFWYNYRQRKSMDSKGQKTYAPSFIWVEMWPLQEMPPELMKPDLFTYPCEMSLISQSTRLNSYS

B1: peptide of SEQ ID NO: 23 (peptide)
peptide: Ac-LEGREKVRAQI[Aib][Aib]EGMSTWS[Aib]RK[PEG12]K([γGlu-γGlu-γGlu-Palmitoyl])-NH2
SMILES: CCCCCCCCCCCCCCCC(=O)N[C@@H](CCC(=O)N[C@@H](CCC(=O)N[C@@H](CCC(=O)NCCCC[C@H](NC(=O)CCOCCOCCOCCOCCOCCOCCOCCOCCOCCOCCOCCOCCNC(=O)[C@H](CCCCN)NC(=O)[C@H](CCCNC(=N)N)NC(=O)C(C)(C)NC(=O)[C@H](CO)NC(=O)[C@H](Cc1c[nH]c2ccccc12)NC(=O)[C@@H](NC(=O)[C@H](CO)NC(=O)[C@H](CCSC)NC(=O)CNC(=O)[C@H](CCC(=O)O)NC(=O)C(C)(C)NC(=O)C(C)(C)NC(=O)[C@@H](NC(=O)[C@H](CCC(N)=O)NC(=O)[C@H](C)NC(=O)[C@H](CCCNC(=N)N)NC(=O)[C@@H](NC(=O)[C@H](CCCCN)NC(=O)[C@H](CCC(=O)O)NC(=O)[C@H](CCCNC(=N)N)NC(=O)CNC(=O)[C@H](CCC(=O)O)NC(=O)[C@H](CC(C)C)NC(C)=O)C(C)C)[C@@H](C)CC)[C@@H](C)O)C(N)=O)C(=O)O)C(=O)O)C(=O)O
B2: peptide of SEQ ID NO: 24 (peptide)
peptide: Ac-LEGREKVRAQI[Aib][Aib]EG[Nle]STWS[Aib]RK[PEG12]K([γGlu-γGlu-γGlu-Palmitoyl])-NH2
SMILES: CCCCCCCCCCCCCCCC(=O)N[C@@H](CCC(=O)N[C@@H](CCC(=O)N[C@@H](CCC(=O)NCCCC[C@H](NC(=O)CCOCCOCCOCCOCCOCCOCCOCCOCCOCCOCCOCCOCCNC(=O)[C@H](CCCCN)NC(=O)[C@H](CCCNC(=N)N)NC(=O)C(C)(C)NC(=O)[C@H](CO)NC(=O)[C@H](Cc1c[nH]c2ccccc12)NC(=O)[C@@H](NC(=O)[C@H](CO)NC(=O)[C@H](CCCC)NC(=O)CNC(=O)[C@H](CCC(=O)O)NC(=O)C(C)(C)NC(=O)C(C)(C)NC(=O)[C@@H](NC(=O)[C@H](CCC(N)=O)NC(=O)[C@H](C)NC(=O)[C@H](CCCNC(=N)N)NC(=O)[C@@H](NC(=O)[C@H](CCCCN)NC(=O)[C@H](CCC(=O)O)NC(=O)[C@H](CCCNC(=N)N)NC(=O)CNC(=O)[C@H](CCC(=O)O)NC(=O)[C@H](CC(C)C)NC(C)=O)C(C)C)[C@@H](C)CC)[C@@H](C)O)C(N)=O)C(=O)O)C(=O)O)C(=O)O
B3: peptide of SEQ ID NO: 22 (peptide)
peptide: Ac-LEGREKVRAQI[Aib][Aib]EG[Nle]STWS[Aib]RKK[PEG12]K([γGlu-Stearoyl])-NH2
SMILES: CCCCCCCCCCCCCCCCCC(=O)N[C@@H](CCC(=O)NCCCC[C@H](NC(=O)CCOCCOCCOCCOCCOCCOCCOCCOCCOCCOCCOCCOCCNC(=O)[C@H](CCCCN)NC(=O)[C@H](CCCCN)NC(=O)[C@H](CCCNC(=N)N)NC(=O)C(C)(C)NC(=O)[C@H](CO)NC(=O)[C@H](Cc1c[nH]c2ccccc12)NC(=O)[C@@H](NC(=O)[C@H](CO)NC(=O)[C@H](CCCC)NC(=O)CNC(=O)[C@H](CCC(=O)O)NC(=O)C(C)(C)NC(=O)C(C)(C)NC(=O)[C@@H](NC(=O)[C@H](CCC(N)=O)NC(=O)[C@H](C)NC(=O)[C@H](CCCNC(=N)N)NC(=O)[C@@H](NC(=O)[C@H](CCCCN)NC(=O)[C@H](CCC(=O)O)NC(=O)[C@H](CCCNC(=N)N)NC(=O)CNC(=O)[C@H](CCC(=O)O)NC(=O)[C@H](CC(C)C)NC(C)=O)C(C)C)[C@@H](C)CC)[C@@H](C)O)C(N)=O)C(=O)O

These binders were tested against T1, RXFP1 receptor (assay: cell-based or functional assay).

Question: How did the “EC50 (nM), OVCAR 5 cells (cAMP)” value turn out when B1 was run?
Answer: Its value is 3.62 nM.

Question: And the “EMax, OVCAR 5 cells (cAMP)” value?
Answer: Its value is 89%.

Question: B2 was tested. Which “EC50 (nM), OVCAR 5 cells (cAMP)” value did it give?
Answer: The value was 3.2 nM.

Question: And the “EMax, OVCAR 5 cells (cAMP)” value?
Answer: The value was 74%.

Question: What does the source list for B3?
Answer: EC50 (nM), OVCAR 5 cells (cAMP): 21.4 nM; EMax, OVCAR 5 cells (cAMP): 104%
